{"source": "patent US20040005550A1", "about": "“Methods and compositions useful for targeting activated vitronectin receptor alphavbeta3” (The Scripps Research Institute, priority 1998, published 2004)", "key": {"[1]": {"molecular_target": "T1, purified αvβ3 receptors from human placenta (human), P06756", "T1 chain 1": "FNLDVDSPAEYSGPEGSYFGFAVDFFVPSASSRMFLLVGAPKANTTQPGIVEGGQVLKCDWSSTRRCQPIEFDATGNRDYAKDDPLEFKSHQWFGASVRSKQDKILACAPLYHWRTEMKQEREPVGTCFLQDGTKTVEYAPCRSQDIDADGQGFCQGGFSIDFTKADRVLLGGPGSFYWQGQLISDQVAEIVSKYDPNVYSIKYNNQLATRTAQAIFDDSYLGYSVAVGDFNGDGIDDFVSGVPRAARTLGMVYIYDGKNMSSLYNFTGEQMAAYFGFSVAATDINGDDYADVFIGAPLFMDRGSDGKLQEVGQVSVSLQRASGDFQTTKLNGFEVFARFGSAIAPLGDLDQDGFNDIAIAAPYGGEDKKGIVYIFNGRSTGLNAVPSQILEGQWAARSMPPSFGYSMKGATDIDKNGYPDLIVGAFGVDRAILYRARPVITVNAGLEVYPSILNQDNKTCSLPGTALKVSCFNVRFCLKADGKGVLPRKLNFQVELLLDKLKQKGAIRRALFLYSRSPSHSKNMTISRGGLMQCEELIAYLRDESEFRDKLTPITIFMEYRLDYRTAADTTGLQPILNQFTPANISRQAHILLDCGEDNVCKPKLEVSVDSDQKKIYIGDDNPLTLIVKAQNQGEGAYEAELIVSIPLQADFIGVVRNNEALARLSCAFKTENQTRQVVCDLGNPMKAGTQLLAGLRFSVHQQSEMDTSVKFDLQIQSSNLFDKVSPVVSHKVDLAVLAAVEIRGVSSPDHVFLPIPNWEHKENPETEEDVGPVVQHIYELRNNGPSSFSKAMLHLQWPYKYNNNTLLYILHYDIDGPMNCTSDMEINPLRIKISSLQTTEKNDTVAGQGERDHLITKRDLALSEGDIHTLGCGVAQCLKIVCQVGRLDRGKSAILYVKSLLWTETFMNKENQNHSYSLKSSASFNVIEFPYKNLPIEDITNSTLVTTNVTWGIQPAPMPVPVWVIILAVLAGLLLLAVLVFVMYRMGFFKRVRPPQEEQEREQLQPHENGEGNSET", "T1 chain 2": "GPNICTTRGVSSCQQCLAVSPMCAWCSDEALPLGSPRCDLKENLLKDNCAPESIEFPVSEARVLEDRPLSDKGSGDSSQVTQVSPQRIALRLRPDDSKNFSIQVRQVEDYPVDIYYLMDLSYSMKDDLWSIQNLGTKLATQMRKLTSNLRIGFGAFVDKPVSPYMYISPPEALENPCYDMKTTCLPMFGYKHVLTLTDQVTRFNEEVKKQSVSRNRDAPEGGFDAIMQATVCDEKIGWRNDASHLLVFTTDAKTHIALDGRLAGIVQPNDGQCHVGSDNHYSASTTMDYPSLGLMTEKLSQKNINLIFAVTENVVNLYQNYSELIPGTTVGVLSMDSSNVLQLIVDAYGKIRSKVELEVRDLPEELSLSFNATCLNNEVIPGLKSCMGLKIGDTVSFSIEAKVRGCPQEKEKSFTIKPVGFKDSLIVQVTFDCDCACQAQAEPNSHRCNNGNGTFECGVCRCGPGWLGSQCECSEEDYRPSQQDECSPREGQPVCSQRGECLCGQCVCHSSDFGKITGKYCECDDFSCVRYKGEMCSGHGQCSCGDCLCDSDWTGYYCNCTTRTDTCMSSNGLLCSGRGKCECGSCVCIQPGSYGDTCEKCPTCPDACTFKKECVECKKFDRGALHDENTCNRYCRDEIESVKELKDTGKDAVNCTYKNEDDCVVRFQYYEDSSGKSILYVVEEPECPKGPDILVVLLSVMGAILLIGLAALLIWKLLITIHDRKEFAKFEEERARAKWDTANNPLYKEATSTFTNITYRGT", "experiment": "ELISA on purified integrin; 2 mM RGDS against WOW-1 Fab"}, "[2]": {"molecular_target": "T2, human αvβ3 integrin on cells (human), P06756", "T2 chain 1": "T1 chain 1", "T2 chain 2": "T1 chain 2", "experiment": "flow cytometry, AP5-treated αvβ3-CHO cells; 2 mM RGDS against aPB"}, "[3]": {"molecular_target": "T2, human αvβ3 integrin on cells (human), …", "experiment": "flow cytometry, AP5-treated αvβ3-CHO cells; 2 mM RGDS against WOW-1 Fab"}}, "data": [{"binder": "RGDS (modifications not checked)", "values": [{"measurement": "percent inhibition of WOW-1 Fab binding", "setting": "[1]", "value": "> 95", "unit": "%"}, {"measurement": "percent inhibition of aPB binding", "setting": "[2]", "value": "> 85", "unit": "%"}, {"measurement": "percent inhibition of WOW-1 Fab binding", "setting": "[3]", "value": "> 85", "unit": "%"}]}]}
